The assay deals with TLR5 (UniProt O60602 21-858). As to the kind of experiment: cell-based or functional assay.
Sequence of TLR5 (O60602 21-858 limits assumed): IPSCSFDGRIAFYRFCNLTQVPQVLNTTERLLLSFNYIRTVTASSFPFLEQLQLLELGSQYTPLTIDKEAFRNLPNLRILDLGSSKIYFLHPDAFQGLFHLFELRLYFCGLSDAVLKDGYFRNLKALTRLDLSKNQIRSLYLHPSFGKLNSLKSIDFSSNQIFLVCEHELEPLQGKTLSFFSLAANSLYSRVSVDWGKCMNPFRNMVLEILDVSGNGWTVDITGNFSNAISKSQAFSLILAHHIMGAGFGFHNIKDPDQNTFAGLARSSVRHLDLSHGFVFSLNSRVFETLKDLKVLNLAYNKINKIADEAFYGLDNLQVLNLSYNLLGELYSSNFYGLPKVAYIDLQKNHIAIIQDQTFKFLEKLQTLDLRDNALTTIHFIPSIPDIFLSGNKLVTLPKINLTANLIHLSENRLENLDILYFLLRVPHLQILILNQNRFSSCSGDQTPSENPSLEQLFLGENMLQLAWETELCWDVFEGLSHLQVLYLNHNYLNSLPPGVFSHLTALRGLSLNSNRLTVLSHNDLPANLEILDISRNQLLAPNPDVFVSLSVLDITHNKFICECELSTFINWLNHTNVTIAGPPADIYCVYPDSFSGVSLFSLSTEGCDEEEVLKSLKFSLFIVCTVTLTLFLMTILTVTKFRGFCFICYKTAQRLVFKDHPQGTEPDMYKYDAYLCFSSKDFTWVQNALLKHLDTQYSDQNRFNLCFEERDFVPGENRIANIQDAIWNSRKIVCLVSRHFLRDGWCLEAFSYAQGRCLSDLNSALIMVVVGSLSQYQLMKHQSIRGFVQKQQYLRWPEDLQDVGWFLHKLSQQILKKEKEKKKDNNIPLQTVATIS

B1: STF2.EIII+ fusion protein (other)
chain: MAQVINTNSLSLLTQNNLNKSQSALGTAIERLSSGLRINSAKDDAAGQAIANRFTANIKGLTQASRNANDGISIAQTTEGALNEINNNLQRVRELAVQSANSTNSQSDLDSIQAEITQRLNEIDRVSGQTQFNGVKVLAQDNTLTIQVGANDGETIDIDLKQINSQTLGLDSLNVQKAYDVKDTAVTTKAYANNGTTLDVSGLDDAAIKAATGGTNGTASVTGGAVKFDADNNKYFVTIGGFTGADAAKNGDYEVNVATDGTVTLAAGATKTTMPAGATTKTEVQELKDTPAVVSADAKNALIAGGVDATDANGAELVKMSYTDKNGKTIEGGYALKAGDKYYAADYDEATGAIKAKTTSYTAADGTTKTAANQLGGVDGKTEVVTIDGKTYNASKAAGHDFKAQPELAEAAAKTTENPLQKIDAALAQVDALRSDLGAVQNRFNSAITNLGNTVNNLSEARSRIEDSDYATEVSNMSRAQILQQAGTSVLAQANQVPQNVLSLLRKGNSKLEGQLEFPRTSMEKLQLKGTTYGVCSKAFKFLGTPADTGHGTVVLELQYTGTDGPCKVPISSVASLNDLTPVGRLVTVNPFVSVATANAKVLIELEPPFGDSYIVVGRGEQQINHHWHKSGSSIGK
For B1, the “TLR-5 EC50 (IL-8 in supernatant of HEK293 cells, ELISA), batch 052” value was over 5 µg/mL; the “TLR-5 EC50 (IL-8 in supernatant of HEK293 cells, ELISA), batch 054” value came out at 1.2 µg/mL; the “TLR-5 EC50 (IL-8 in supernatant of HEK293 cells, ELISA), batch 057” value is 0.198 µg/mL.

The record behind these values is US20080063657A1 (VAXINNATE, published 2008).
